In patent US20220041746A1 (Sanofi, published 2022):
“And” between values parts separate entries of the source, which are not always exact repeats. Equal entries are not always repeated. Where two headings read alike, the source gives them in different places.

Columns and labels:
[1] = biological target: T1, CD38 isoform A (SEQ ID NO:1) (human, UniProt P28907 45-300); assay: ELISA, plate coated with the CD38 isoform
T1 construct: also called huCD38 isoform A
Procedure: (§1) 96-well plates were coated with either isoform at 0.5 μg/well in PBS and 100 μL/well of antibodies were added to the plate. The plate was incubated at 37° C. for 1 h and washed five times with PBS containing 0.05% Tween-20 (PBS-T). […] Following incubation at 37° C. for 1 h in darkness, plates were washed with PBS-T five times. Antibody binding w as visualized by adding TMB-H2O2 buffer and read at a wavelength of 450 nm. EC50 values were estimated using BIOST@T-SPEED software.

[2] = biological target: T2, CD38 isoform E (SEQ ID NO:105) (human, UniProt P28907 45-195, limits assumed); assay: ELISA, plate coated with the CD38 isoform
T2 construct: also called huCD38 isoform E
Procedure: as §1

[3] = biological target: T3, human CD38 expressed on the cell surface (human, UniProt P28907 1-300); assay: flow cytometry on SU-DHL-8 cells (SUDHL8)
T3 construct: whole, on cells; also called hCD38-expressing cells; huCD38

[4] = biological target: T3, human CD38 expressed on the cell surface; assay: flow cytometry on preB::300.19 cells, apparent KD
Procedure: (§2) The recombinant cell line was described by J. Deckket et al. 2014 Clin Cancer Res 20:4574-4583. […] Antibody binding was evaluated after centrifugation and resuspension of cells by adding 200 μL/well PBS 1% BSA and read using Guava® easvCyte™ 8HT Flow Cytometry System. Apparent KD and EC50 values were estimated using BIOST@T-BINDING and BIOST@T-SPEED software, respectively.

[5] = biological target: T4, cynomolgus monkey CD38 expressed on the cell surface (cynomolgus monkey, UniProt Q5VAN0 1-301); assay: flow cytometry on preB::300.19 cells, apparent KD
T4 construct: whole, on cells; also called cCD38-expressing cells
Procedure: as §2

[6] = biological target: T3, human CD38 expressed on the cell surface; assay: flow cytometry on preB::300.19 cells, apparent KD; remark: listed apart in the source
Procedure: as §2

[7] = biological target: T4, cynomolgus monkey CD38 expressed on the …; assay: flow cytometry on preB::300.19 cells, apparent KD; remark: listed apart in the source
Procedure: as §2

[8] = biological target: T4, cynomolgus monkey CD38 expressed on the …; assay: flow cytometry on PreB cynoCD38-expressing cells
[9] = biological target: T5, hCD38-his (SEQ ID NO: 2) (human, UniProt P28907 45-300); assay: SPR, mAb captured via anti-human Fc, soluble CD38-his injected
T5 construct: His-tagged soluble protein derived from isoform A; also called human CD38-histag; hCD38::Histag
Procedure: (§3) The binding properties of the anti-huCD38 mabs were evaluated using a BIAcore 2000 (BIAcore Inc., Uppsala, Ni). […] The surface was regenerated between injections using 30 μL of 50 mM NaOH-1 M NaCl. Individual sensorgrams wore analyzed using BIAsimulation software.

[10] = biological target: T6, cCD38-his (SEQ ID NO: 4) (cynomolgus monkey, UniProt Q5VAN0 46-301); assay: as above
T6 construct: His-tagged soluble protein; also called cyno CD38-histag; cynoCD38::Histag
Procedure: as §3

[11] = biological target: T5, hCD38-his (SEQ ID NO: 2); assay: as above; remark: listed apart in the source
Procedure: as §3

[12] = biological target: T6, cCD38-his (SEQ ID NO: 4); assay: as above; remark: listed apart in the source
Procedure: as §3

[13] = biological target: T3, human CD38 expressed on the cell surface; assay: flow cytometry on MOLP-8 multiple myeloma cells [Cont.]
[14] = biological target: T7, recombinant human CD38 (SPR of Example 4) (human, UniProt P28907 45-300, limits assumed); assay: SPR, target binding without other targets present
Procedure: (§4) Surface regenerate was conducted by injecting 10 mM Glycine-HCl pH 2.5 for 60 sec at 30 μl/min. […] Equilibrium dissociation constant (KD) was calculated using association rate constant (kₒₙ) and dissociation rate constant (koff).
(§5) Next, each antigen binding domain of the CD38SB19×CD28ₛᵤₚ×CD3mid specific binding protein was evaluated by SPR for the ability to bind cognate antigen with and without the other two antigen binding domains in saturation.

[15] = biological target: T3, human CD38 expressed on the cell surface; assay: flow cytometry on preB::300.19 cells, apparent KD; remark: listed apart in the source
Procedure: as §2, with “Clin.” for “Clin”, “μl/well” for “μL/well”, “easyCyte™” for “easvCyte™”, “BIOST®T-BINDING” for “BIOST@T-BINDING”, “BIOST®T-SPEED” for “BIOST@T-SPEED”

[16] = biological target: T3, human CD38 expressed on the cell surface; assay: flow cytometry on 300.19 huCD38 cells (PréB hCD38)
Procedure: as §2, with “Clin.” for “Clin”, “μl/well” for “μL/well”, “easyCyte™” for “easvCyte™”, “BIOST®T-BINDING” for “BIOST@T-BINDING”, “BIOST®T-SPEED” for “BIOST@T-SPEED”

[17] = biological target: T7, recombinant human CD38 (SPR of Example …); assay: SPR, target binding with the other two targets in saturation
Procedure: as §4, §5

[18] = biological target: T7, recombinant human CD38 (SPR of Example …); assay: SPR
[19] = biological target: T4, cynomolgus monkey CD38 expressed on the …; assay: flow cytometry on 300.19 cynoCD38 cells (PréB cCD38)
Procedure: as §2, with “Clin.” for “Clin”, “μl/well” for “μL/well”, “easyCyte™” for “easvCyte™”, “BIOST®T-BINDING” for “BIOST@T-BINDING”, “BIOST®T-SPEED” for “BIOST@T-SPEED”

B1: mAb1 (antibody, human IgG1, kappa, V domains shown)
VH: QVQLQQSGAELVRSGASVKMSCKASGYTFTSFNMHWVKETPGQGLEWIGYIYPGNGGTNYNQKFKGKATLTADTSSSTAYMQISSLTSEDSAVYFCARTGGLRRAYFTYWGQGTLVTVSS
VL: DIVLTQSPASLAVSLGQRATISCRASESVDSYGNGFMHWYQQKPGQPPKLLIYLASNLESGVPARFSGSGSRTDFTLTIDPVEADDAATYYCQQNKEDPWTFGGGTKLEIKR
notes: also called antiCD38_C2-CD38-1
EC50 [1]: 0.11 nM | EC50 [2]: 0.08 nM | EC50 [3]: 0.24 nM and 0.0366 µg/mL | Kd [4]: 0.28 nM | Kd [5]: 0.22 nM | Kd [6]: 0.28 nM | Kd [7]: 0.22 nM | EC50 [8]: 0.033 µg/mL and 0.15 nM | Kd [9]: 0.336 nM | koff [9]: 0.000266 s⁻¹ | Kd [10]: 0.39 nM | koff [10]: 9.85e-05 s⁻¹ | Kd [11]: 0.336 nM | koff [11]: 0.000266 s⁻¹ | Kd [12]: 0.39 nM | koff [12]: 9.85e-05 s⁻¹ | EC50 [13]: 0.98 nM and 0.148 µg/mL

B2: CD38SB19×CD28sup×CD3mid trispecific binding protein (other)
VH 1: QVQLVQSGAEVAKPGTSVKLSCKASGYTFTDYWMQWVKQRPGQGLEWIGTIYPGDGDTGYAQKFQGKATLTADKSSKTVYMHLSSLASEDSAVYYCARGDYYGSNSLDYWGQGTSVTVSS
VL 1: DIVMTQSHLSMSTSLGDPVSITCKASQDVSTVVAWYQQKPGQSPRRLIYSASYRYIGVPDRFTGSGAGTDFTFTISSVQAEDLAVYYCQQHYSPPYTFGGGTKLEIK
VH 2: QVQLVQSGAEVVKPGASVKVSCKASGYTFTSYYIHWVRQAPGQGLEWIGSIYPGNVNTNYAQKFQGRATLTVDTSISTAYMELSRLRSDDTAVYYCTRSHYGLDWNFDVWGKGTTVTVSS
VL 2: DIQMTQSPSSLSASVGDRVTITCQASQNIYVWLNWYQQKPGKAPKLLIYKASNLHTGVPSRFSGSGSGTDFTLTISSLQPEDIATYYCQQGQTYPYTFGQGTKLEIK
VH 3: QVQLVESGGGVVQPGRSLRLSCAASGFTFTKAWMHWVRQAPGKQLEWVAQIKDKSNSYATYYADSVKGRFTISRDDSKNTLYLQMNSLRAEDTAVYYCRGVYYALSPFDYWGQGTLVTVSS
VL 3: DIVMTQTPLSLSVTPGQPASISCKSSQSLVHNNANTYLSWYLQKPGQSPQSLIYKVSNRFSGVPDRFSGSGSGTDFTLKISRVEAEDVGVYYCGQGTQYPFTFGSGTKVEIK
Kd [14]: 1.75 nM | Kd [15]: 4 nM | EC50 [16]: 4 nM and 0.603 µg/mL | Kd [17]: 2.42 nM

B3: CD38HHY1370×CD28sup×CD3mid (other)
VH 1: QVQLVESGGGVVQPGRSLRLSCAASGFTFSSYGMHWVRQAPGKGLEWVAVIWYDGSNKYYADSVKGRFTISGDNSKNTLYLQMNSLRAEDTAVYYCARMFRGAFDYWGQGTLVTVSS
VL 1: AIQMTQSPSSLSASVGDRVTITCRASQGIRNDLGWYQQKPGKAPKLLIYAASSLQSGVPSRFSGSGSGTDFTLTISGLQPEDSATYYCLQDYIYYPTFGQGTKVEIK
VH 2: QVQLVQSGAEVVKPGASVKVSCKASGYTFTSYYIHWVRQAPGQGLEWIGSIYPGNVNTNYAQKFQGRATLTVDTSISTAYMELSRLRSDDTAVYYCTRSHYGLDWNFDVWGKGTTVTVSS
VL 2: DIQMTQSPSSLSASVGDRVTITCQASQNIYVWLNWYQQKPGKAPKLLIYKASNLHTGVPSRFSGSGSGTDFTLTISSLQPEDIATYYCQQGQTYPYTFGQGTKLEIK
VH 3: QVQLVESGGGVVQPGRSLRLSCAASGFTFTKAWMHWVRQAPGKQLEWVAQIKDKSNSYATYYADSVKGRFTISRDDSKNTLYLQMNSLRAEDTAVYYCRGVYYALSPFDYWGQGTLVTVSS
VL 3: DIVMTQTPLSLSVTPGQPASISCKSSQSLVHNNANTYLSWYLQKPGQSPQSLIYKVSNRFSGVPDRFSGSGSGTDFTLKISRVEAEDVGVYYCGQGTQYPFTFGSGTKVEIK
Kd [18]: 1 nM | binding result [19]: binds
